B1: Serine/threonine-protein kinase Chk1 (Homo sapiens), O14757 (parent)
chain: MAVPFVEDWDLVQTLGEGAYGEVQLAVNRVTEEAVAVKIVDMKRAVDCPENIKKEICINKMLNHENVVKFYGHRREGNIQYLFLEYCSGGELFDRIEPDIGMPEPDAQRFFHQLMAGVVYLHGIGITHRDIKPENLLLDERDNLKISDFGLATVFRYNNRERLLNKMCGTLPYVAPELLKRREFHAEPVDVWSCGIVLTAMLAGELPWDQPSDSCQEYSDWKEKKTYLNPWKKIDSAPLALLHKILVENPSARITIPDIKKDRWYNKPLKKGAKRPRVTSGGVSESPSGFSKHIQSNLDFSPVNSASSEENVKYSSSQPEPRTGLSLWDTSPSYIDKLVQGISFSQPTCPDHMLLNSQLLGTPGSSQNPWQRLVKRMTRFFTKLDADKSYQCLKETCEKLGYQWKKSCMNQVTISTTDRRNNKLIFKVNLLEMDDKILVDFRLSKGDGLEFKRHFLKIKGKLIDIVSSQKIWLPAT
partner: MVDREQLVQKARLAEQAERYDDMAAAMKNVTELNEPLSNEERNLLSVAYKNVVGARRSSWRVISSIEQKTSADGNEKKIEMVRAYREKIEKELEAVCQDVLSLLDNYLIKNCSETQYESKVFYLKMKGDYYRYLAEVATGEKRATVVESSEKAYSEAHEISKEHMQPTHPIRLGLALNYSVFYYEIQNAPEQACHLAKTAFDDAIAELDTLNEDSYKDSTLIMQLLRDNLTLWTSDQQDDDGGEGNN

Variants of: B1
Details: with 1433g_human YWHAG

effect of a mutation on the interaction	Variant
disrupting interaction	S296A

Variants of: B1
Details: with 1433g_human YWHAG
Remark: another data set of the same source

effect of a mutation on the interaction	Variant
disrupting interaction	K38M

Reference: IntAct's records for PubMed 20639859
